Test results: article PMC12102759

B1: MXI1 peptide 4-19 (Max-interacting protein 1), 16-mer library wild type / SIN3A PAH2 (SIN3A PAH domain, residues 295-383) (parent)
chain 1: VKMINVQRLLEAAEFL
chain 2: SLQNNQPVEFNHAINYVNKIKNRFQGQPDIYKAFLEILHTYQKEQRNAKEAGGNYTPALTEQEVYAQVARLFKNQEDLLSEFGQFLPDA
B2: RNF115 peptide 69-84 (E3 ubiquitin-protein ligase RNF115), 16-mer library wild type / MDM2 SWIB (MDM2 SWIB/MDM2 domain, residues 17-125) (parent)
chain 1: THFAELWGHLDHTMFF
chain 2: SQIPASEQETLVRPKPLLLKLLKSVGAQKDTYTMKEVLFYLGQYIMTKRLYDEKQQHIVYCSNDLLGDLFGVPSFSVKEHRKIYTMIYRNLVVVNQQESSDSGTSVSEN
B3: AMOTL2 peptide 64-79 (Angiomotin-like protein 2), 16-mer library wild type / TNKS ANK (TNKS 12 ANK repeats, residues 174-649) (parent)
chain 1: QVLQQATRQEPQGQEH
chain 2: TGVPAVSGALRELLEACRNGDVSRVKRLVDAANVNAKDMAGRKSSPLHFAAGFGRKDVVEHLLQMGANVHARDDGGLIPLHNACSFGHAEVVSLLLCQGADPNARDNWNYTPLHEAAIKGKIDVCIVLLQHGADPNIRNTDGKSALDLADPSAKAVLTGEYKKDELLEAARSGNEEKLMALLTPLNVNCHASDGRKSTPLHLAAGYNRVRIVQLLLQHGADVHAKDKGGLVPLHNACSYGHYEVTELLLKHGACVNAMDLWQFTPLHEAASKNRVEVCSLLLSHGADPTLVNCHGKSAVDMAPTPELRERLTYEFKGHSLLQAAREADLAKVKKTLALEIINFKQPQSHETALHCAVASLHPKRKQVTELLLRKGANVNEKNKDFMTPLHVAAERAHNDVMEVLHKHGAKMNALDTLGQTALHRAALAGHLQTCRLLLSYGSDPSIISLQGFTAAQMGNEAVQQILSESTPIRTSD

Variants of: B1
Test: proteomic peptide phage display deep mutational scan (ProP-PD DMS): M13 P8 16-mer library selected against immobilised GST-tagged bait for four days (rounds), NGS of the eluted pools per day and pseudo-replica
Settings: with SIN3A PAH2 (SIN3A PAH domain, residues 295-383); bait immobilised on MaxiSorp plates (10 µg), library pre-cleared on GST, 2 h binding at 4 °C, five washes; one round per day, days 1-4; value from days 2 and 3; keep out of graded; scale: average fractional NGS count over selection days 2 and 3
Variant chain 1 VKMINVQRLLEAAEFE [chain 1 L16E] has a screen value of 7.18e-05. In the case of chain 1 VKMINVQRLLEAAEFM [chain 1 L16M], the screen value is reported as 3.86e-05. For chain 1 VKMINVQRLLEAAEFK [chain 1 L16K], the screen value was 7.16e-05. chain 1 VKMINVQRLLEAAEFR [chain 1 L16R] gave a screen value of 0.000122. In the case of chain 1 VKMINVQRLLEAAEFQ [chain 1 L16Q], the screen value is reported as 0.000343. In the case of chain 1 VKMFNVQRLLEAAEFL [chain 1 I4F], the screen value is reported as 0.000274. For chain 1 VKMGNVQRLLEAAEFL [chain 1 I4G], the screen value was 4.79e-05. Variant chain 1 VKMDNVQRLLEAAEFL [chain 1 I4D] has a screen value of 0.00294. chain 1 VKMHNVQRLLEAAEFL [chain 1 I4H] was tested, and the screen value was 0.000141. chain 1 VKMNNVQRLLEAAEFL [chain 1 I4N] was tested, and the screen value was 0.000113. In the case of chain 1 VKMMNVQRLLEAAEFL [chain 1 I4M], the screen value is reported as 0.00797. For chain 1 VKMTNVQRLLEAAEFL [chain 1 I4T], the screen value was 0.000667. chain 1 VKMANVQRLLEAAEFL [chain 1 I4A] gave a screen value of 0. In the case of chain 1 VKMVNVQRLLEAAEFL [chain 1 I4V], the screen value is reported as 0.00213. chain 1 VKMWNVQRLLEAAEFL [chain 1 I4W] showed a screen value of 8.32e-05. With chain 1 VKMKNVQRLLEAAEFL [chain 1 I4K] the screen value was 0. For chain 1 VKMLNVQRLLEAAEFL [chain 1 I4L], the screen value was 0.00108. Variant chain 1 VKMINVQRGLEAAEFL [chain 1 L9G] has a screen value of 0. chain 1 VKMINVQRILEAAEFL [chain 1 L9I] was tested, and the screen value was 0.00165. chain 1 VKMINVQRTLEAAEFL [chain 1 L9T] was tested, and the screen value was 0. For chain 1 VKMINVQRNLEAAEFL [chain 1 L9N], the screen value was 0. Variant chain 1 VKMINVQRMLEAAEFL [chain 1 L9M] has a screen value of 0. With chain 1 VKMINIQRLLEAAEFL [chain 1 V6I] the screen value was 0.000142. Variant chain 1 VKMINQQRLLEAAEFL [chain 1 V6Q] has a screen value of 2.36e-05. chain 1 VKMINMQRLLEAAEFL [chain 1 V6M] gave a screen value of 0.000299. In the case of chain 1 VKMINVQRLTEAAEFL [chain 1 L10T], the screen value is reported as 0.000112. Variant chain 1 VKMINVQRLVEAAEFL [chain 1 L10V] has a screen value of 0. chain 1 VKMINVQRLWEAAEFL [chain 1 L10W] showed a screen value of 3.85e-05. chain 1 VKMINVQRLAEAAEFL [chain 1 L10A] was tested, and the screen value was 0.

Variants of: B2
Test: as above
Settings: with MDM2 SWIB (MDM2 SWIB/MDM2 domain, residues 17-125); bait immobilised on MaxiSorp plates (10 µg), library pre-cleared on GST, 2 h binding at 4 °C, five washes; one round per day, days 1-4; value from days 2 and 3; keep out of graded; scale: average fractional NGS count over selection days 2 and 3
For chain 1 L6S, the screen value was 0. Work on chain 1 L6T yielded a screen value of 0. Variant chain 1 G8L has a screen value of 6.83e-05. For chain 1 G8I, the screen value was 3.49e-05. Variant chain 1 L10Y has a screen value of 0. chain 1 L10P gave a screen value of 0. chain 1 L10A gave a screen value of 0. Variant chain 1 L10W has a screen value of 0.000123. Work on chain 1 L10G yielded a screen value of 0. For chain 1 L10E, the screen value was 0. chain 1 M14R showed a screen value of 6.33e-05. Work on chain 1 M14I yielded a screen value of 5.94e-05. With chain 1 M14K the screen value was 7.54e-05. chain 1 T13E showed a screen value of 4.86e-05. In the case of chain 1 T13F, the screen value is reported as 3.43e-05. Variant chain 1 T1E has a screen value of 8.39e-05. For chain 1 T1K, the screen value was 5.86e-05. With chain 1 T1R the screen value was 1.6e-05. Work on chain 1 F15E yielded a screen value of 5.35e-05. chain 1 D11V showed a screen value of 5.15e-05. chain 1 A4R was tested, and the screen value was 5.64e-05. Variant chain 1 H9P has a screen value of 0. chain 1 H9L gave a screen value of 3.74e-05. With chain 1 E5F the screen value was 4.65e-05. In the case of chain 1 E5I, the screen value is reported as 1.29e-05. Variant chain 1 E5M has a screen value of 4.31e-05. Work on chain 1 E5G yielded a screen value of 0.00012. Work on chain 1 E5L yielded a screen value of 5.37e-05. chain 1 E5K gave a screen value of 0. Work on chain 1 E5P yielded a screen value of 0. chain 1 W7N showed a screen value of 0. For chain 1 W7D, the screen value was 0. With chain 1 W7K the screen value was 0. Variant chain 1 W7E has a screen value of 0. With chain 1 F3K the screen value was 0. Variant chain 1 F3P has a screen value of 0.000115. Work on chain 1 F3M yielded a screen value of 0. chain 1 H12W was tested, and the screen value was 3.9e-05. Work on chain 1 H12R yielded a screen value of 4.65e-05. Variant chain 1 H12Y has a screen value of 4.94e-05.

Variants of: B3
Test: as above
Settings: with TNKS ANK (TNKS 12 ANK repeats, residues 174-649); bait immobilised on MaxiSorp plates (10 µg), library pre-cleared on GST, 2 h binding at 4 °C, five washes; one round per day, days 1-4; value from days 2 and 3; keep out of graded; scale: average fractional NGS count over selection days 2 and 3
Variant chain 1 QVLQQATRQEPKGQEH [chain 1 Q12K] has a screen value of 5.93e-05. Work on chain 1 QVLQQATRQEPRGQEH [chain 1 Q12R] yielded a screen value of 4.06e-05. Work on chain 1 QVLQQATRQEDQGQEH [chain 1 P11D] yielded a screen value of 0. chain 1 QVLQQATRQEGQGQEH [chain 1 P11G] gave a screen value of 0.000112. Variant chain 1 QVLQQATRQEQQGQEH [chain 1 P11Q] has a screen value of 0. With chain 1 QVLQQATRQEIQGQEH [chain 1 P11I] the screen value was 5.08e-05. chain 1 QVLQQATRQERQGQEH [chain 1 P11R] was tested, and the screen value was 0. chain 1 QVLQQATRQEPQGQKH [chain 1 E15K] was tested, and the screen value was 0. chain 1 QVLQQATRQEPQGQGH [chain 1 E15G] showed a screen value of 6.84e-05. For chain 1 QVLQQAKRQEPQGQEH [chain 1 T7K], the screen value was 7.17e-05. Work on chain 1 QVLQQADRQEPQGQEH [chain 1 T7D] yielded a screen value of 6.07e-05. Work on chain 1 QVLQQARRQEPQGQEH [chain 1 T7R] yielded a screen value of 0. Work on chain 1 QVLQQATRQEPQIQEH [chain 1 G13I] yielded a screen value of 0. With chain 1 QVLQQATRQEPQQQEH [chain 1 G13Q] the screen value was 0. Work on chain 1 QVLQQATRQEPQWQEH [chain 1 G13W] yielded a screen value of 0. chain 1 QVLQQATRQEPQGFEH [chain 1 Q14F] gave a screen value of 3.1e-05. Work on chain 1 QVLQQATRQEPQGGEH [chain 1 Q14G] yielded a screen value of 0.000146. For chain 1 QVLQNATRQEPQGQEH [chain 1 Q5N], the screen value was 8.23e-05. chain 1 QVLQGATRQEPQGQEH [chain 1 Q5G] gave a screen value of 2.86e-05. With chain 1 QVLQDATRQEPQGQEH [chain 1 Q5D] the screen value was 0.000115. chain 1 QVLQWATRQEPQGQEH [chain 1 Q5W] gave a screen value of 6.13e-05. Variant chain 1 QVWQQATRQEPQGQEH [chain 1 L3W] has a screen value of 8.89e-05. chain 1 QVLQQATRQEPQGQEG [chain 1 H16G] was tested, and the screen value was 6.49e-05. chain 1 QVLQQATRQEPQGQEF [chain 1 H16F] was tested, and the screen value was 7.99e-05. chain 1 QVLQQATRQEPQGQEK [chain 1 H16K] was tested, and the screen value was 8.3e-05. Variant chain 1 QVLQQKTRQEPQGQEH [chain 1 A6K] has a screen value of 7.72e-05. For chain 1 QVLQQYTRQEPQGQEH [chain 1 A6Y], the screen value was 5.3e-05. chain 1 QVLQQPTRQEPQGQEH [chain 1 A6P] showed a screen value of 4.91e-05. chain 1 QVLQQATIQEPQGQEH [chain 1 R8I] showed a screen value of 0. chain 1 QVLQQATPQEPQGQEH [chain 1 R8P] gave a screen value of 8.36e-05. With chain 1 QVLQQATFQEPQGQEH [chain 1 R8F] the screen value was 0. chain 1 QVLQQATRKEPQGQEH [chain 1 Q9K] gave a screen value of 4.55e-05. Work on chain 1 QVLQQATRGEPQGQEH [chain 1 Q9G] yielded a screen value of 7.98e-05. In the case of chain 1 QVLQQATRIEPQGQEH [chain 1 Q9I], the screen value is reported as 5.19e-05. Variant chain 1 QVLQQATRQWPQGQEH [chain 1 E10W] has a screen value of 7.2e-05. Work on chain 1 QVLQQATRQDPQGQEH [chain 1 E10D] yielded a screen value of 9.35e-05. Variant chain 1 QVLQQATRQRPQGQEH [chain 1 E10R] has a screen value of 7.98e-05.
